Key:
[1] = system: Cdx2 expression in trophoblast stem cells of ES-TS aggregates; assay: Cdx2 expression by CDX2 immunostaining; type: cell-based, mouse; details: CDX2 immunostaining (FIG. 4g)
Protocol: • Double layer formation: the formation of an (at least) double layered cell aggregate with an external layer of TS cells and an inner layer of ES cells is evaluated using transgenic cell lines. Specifically, ES cells were transfected with Histone 2B and a Red Fluorescent Protein under the control of a cytomegalovirus promoter and clonally derived. The H2B-RFP ES cells are thus constitutively expressing a red fluorescence within their nucleus which allows for their tracking. • TS cells were derived from a mouse constitutively expressing Green Fluorescent Protein (GFP) under the control of a cytomegalovirus promoter in all cells. The GFP TS cells are thus expressing a green fluorescence in their cytoplasma which allows for their tracking. • The formation of a double-layered aggregate is thus assessed by observing a green outer layer of cells and a red inner layer of cells. The efficiency of engulfment is determined as the percentage of green-colored projection area (representing the TS cell layer) that overlaps with an artificial 3-pixel-wide ring drawn around the red-colored projection area (representing the inner aggregate of ES cells) after 24 hours of culturing the ES-TS cell clusters. […] The formation of a cavity is preferably assessed using the cross-sectional section of a cellular aggregate stained with a nuclear-specific dye (for example DAPI). […]

ES-TS cell clusters = assay: Cavitation of ES-TS cell clusters (yield of cavitated blastoids); type: cell-based, mouse; details: FIG. 4h; CHIR99021 at 3 uM
Protocol: FIG. 4c: […], The yield of cavitated blastoids is described by the percentage of ES-TS cell clusters that were cavitated after 96 hours of culture, thus forming an artificial blastocyst or blastoid. […]
The efficiency of blastoid formation is measured as the percentage of cavitated structures with (1) an external cellular layer expressing the transcription factors CDX2, Eomes and GATA3 and (2) an internal cellular aggregate expressing the transcription factors Oct4 and Sox2 and at least partly Nanog.
The formation of a cavity is assessed by the formation of a volume within the aggregate that is not occupied by cellular nucleus. The formation of a cavity is preferably assessed using the cross-sectional section of a cellular aggregate stained with a nuclear-specific dye (for example DAPI).
• Double layer formation: the formation of an (at least) double layered cell aggregate with an external layer of TS cells and an inner layer of ES cells is evaluated using transgenic cell lines. […] The H2B-RFP ES cells are thus constitutively expressing a red fluorescence within their nucleus which allows for their tracking. • TS cells were derived from a mouse constitutively expressing Green Fluorescent Protein (GFP) under the control of a cytomegalovirus promoter in all cells. […]

B1: HB-EGF: a protein and a growth factor known in the art to activate the MAPK signalling pathway (protein, UniProt Q99075 63-148, looked up)
Heparin-binding EGF-like …: DLQEADLDLLRVTLSSKPQALATPNKEEHGKRKKKGKGLGKKRDPCLRKYKDFCIHGECKYVKELRAPSCICHPGYHGERCHGLSL
modifications: Heparin-binding EGF-like growth factor
- Cdx2 expression [1]: positively correlates with an increase of Cdx2 expression

B2: Wnt3a: Wnt ligand (protein, UniProt P56704 19-352, looked up)
Protein Wnt-3a: SYPIWWSLAVGPQYSSLGSQPILCASIPGLVPKQLRFCRNYVEIMPSVAEGIKIGIQECQHQFRGRRWNCTTVHDSLAIFGPVLDKATRESAFVHAIASAGVAFAVTRSCAEGTAAICGCSSRHQGSPGKGWKWGGCSEDIEFGGMVSREFADARENRPDARSAMNRHNNEAGRQAIASHMHLKCKCHGLSGSCEVKTCWWSQPDFRAIGDFLKDKYDSASEMVVEKHRESRGWVETLRPRYTYFKVPTERDLVYYEASPNFCEPNPETGSFGTRDRTCNVSSHGIDGCDLLCCGRGHNARAERRREKCRCVFHWCCYVSCQECTRVYDVHTCK
- yield of cavitated blastoids / cavitation (ES-TS cell clusters): increases the yield of cavitated blastoids
